Here are results for eight molecules from patent US20240327495A1 (OXFORD UNIVERSITY INNOVATION, published 2024).

Changes are numbered by the printed parent chain. In names and notes the source's numbering stands.

In experiment [1] the target is T1, C. difficile toxin B glucosyltransferase domain (GTD, residues 2-543) (Clostridium difficile, UniProt P18177 2-543).
Experiment [2] has as its target T2, combined repetitive oligopeptide domain of C. difficile toxin A (residues 2304-2710, CROP) (Clostridium difficile, UniProt P16154 2304-2710).
T2 construct: range 2304-2710; also called AviTag-His6-CROP; TcdA CROP
The experiment is described as follows: ELISA on antigen-coated wells, anti-SBTI antibody detection.

Experiment [3] concerns the target T1, C. difficile toxin B …. The experiment is described as follows: SPR, kinetic analysis, biotinylated AviTag-His6-GTD captured on the chip.
Experiment [4] has as its target hen egg lysozyme (HEL) (hen, UniProt P00698 19-147). The experiment is described as follows: ELISA, antigen-coated wells, 500 nM gastrobody, detected with polyclonal anti-SBTI antibody. Background: ELISA stands for enzyme-linked immunosorbent assay.
For experiment [5], the target named is T3, trypsin (cow, UniProt P00760 24-246).
T3 construct: also called trypsin from cow pancreas (T1426, Merck)
The experiment is described as follows: plate assay, trypsin-coated wells, bound gastrobody detected with biotinylated GTD and streptavidin-HRP.

The target in experiment [6] is T1, C. difficile toxin B …. In words: SPR, immobilised GTD. (In general: In SPR one partner is held on a chip, and binding of the other changes the refractive index at the surface.)
Experiment [7] has as its target T1, C. difficile toxin B …. In words: SPR, GTD.
Experiment [8] has as its target T1, C. difficile toxin B …. The experiment is described as follows: SPR, immobilised GTD. This is another data set of the same source.
The target of experiment [9] is T2, combined repetitive oligopeptide domain …. The experiment is described as follows: SPR, equilibrium analysis, biotinylated AviTag-His6-CROP captured on the chip.
Experiment [10] concerns the target T1, C. difficile toxin B …. In words: ELISA on antigen-coated wells, anti-SBTI antibody detection.

B1: anti-GTD gastrobody GT01 (designed binder, not shown: small tags and cut ends)
chain: DFVLDNEGNPLENGGTYYILSDYGRQLFGGIRAAPTGNERCPLTVVQSLFRNHRDKGIGTIISSPYRIRFIAEGHPLSLKFDSFAVIMLCVGIPTEWSVVEDLPEGPAVKIGENKDAMDGWFRLERVSDDEFNNYKLVFCPQQAEDDKCGDIGISIDHDDGTRRLVVSKNKPLVVQFQKLDKESL
notes: also called anti-GTD (GT01); His6-Thrombin site-SpyTag003-GT01
In the case of B1, in experiment [1], the half-maximal effective concentration (EC50 (read off the curve)) (commonly the concentration needed to bring the measured effect to its halfway point) was around 7 nM. Besides, the binding result in [2] is “no binding (tested: 500 nM gastrobody)”. Further, in experiment [3], binding was put at a Kd of 85 nM; the koff (commonly a measure of how fast the partners let go of each other) turned out to be 0.036 s⁻¹; the kon – broadly, the rate constant with which the complex forms – came out at 420000 M⁻¹ s⁻¹. Moreover, in experiment [4], the binding result is recorded as “no binding (tested: 500 nM)”. In experiment [5], the “EC50 (read off the curve)” value was around 20 nM.

B2: anti-GTD gastrobody GT44 (designed binder, not shown: small tags and cut ends)
chain: B1 chain with S128N, D129P, D130S, E131N, F132G
On to B2, for which, in experiment [6], the dissociation constant (Kd) (commonly the equilibrium constant for the complex coming apart) was 17.4 nM, the koff turned out to be 0.022 s⁻¹ and the kon was determined as 1.3e+06 M⁻¹ s⁻¹.

B3: GT01 R63A (designed binder, not shown: small tags and cut ends)
chain: B1 chain with R67A
In turn, B3 returned a Kd in experiment [7] of 78.7 nM. For the same molecule, in [5], the binding result is reported as “no binding (tested: 200 nM)”.

B4: anti-GTD gastrobody GT47 (designed binder, not shown: small tags and cut ends)
chain: DFVLDNEGNPLENGGTYYILSDYGRQLFGGIRAAPTGNERCPLTVVQSLFRNHRDKGIGTIISSPYRIRFIAEGHPLSLKFDSFAVIMLCVGIPTEWSVVEDLPEGPAVKIGENKDAMDGWFRLERVRPTSSTGNNYKLVFCPQQAEDDKCGDIGISIDHDDGTRRLVVSKNKPLVVQFQKLDKESL
As for B4, the “fold improvement of affinity against GT01” value in experiment [8] is around 8 fold. In experiment [6], this molecule gave a Kd of 10.3 nM, a koff of 0.022 s⁻¹ and an on-rate (kon) of 2.1e+06 M⁻¹ s⁻¹.

B5: anti-CROP gastrobody G9 (designed binder, not shown: small tags and cut ends)
chain: DFVLDNEGNPLENGGTYYILSHPDLFGGIRAAPTGNERCPLTVVQSLYLFDKGIGTIISSPYRIRFIAEGHPLSLKFDSFAVIMLCVGIPTEWSVVEDLPEGPAVKIGENKDAMDGWFRLERVSDDEFNNYKLVFCPQQAEDDKCGDIGISIDHDDGTRRLVVSKNKPLVVQFQKLDKESL
As for B5, the dissociation constant (Kd) in experiment [9] came out at 4600 nM.

B6: anti-CROP gastrobody G22 (designed binder, not shown: small tags and cut ends)
chain: B5 chain with H22L, P23Q, D24N, L25R, L47H, Y48D, L49F, F50M
Consider B6, for which the dissociation constant (Kd) in experiment [9] was around 50000 nM.

B7: anti-CROP gastrobody T12 (designed binder, not shown: small tags and cut ends)
chain: B5 chain with H22I, P23A, D24G, L25T, Y48V, L49F, F50P
notes: also called anti-CROP clone T12; anti-CROP (T12)
In the case of B7, the binding result in experiment [10] is listed as “no binding (tested: 500 nM gastrobody)”; in [4], “no binding (tested: 500 nM)”. Moreover, the Kd in experiment [9] was determined as 1700 nM.

B8: anti-CROP gastrobody T42 (designed binder, not shown: small tags and cut ends)
chain: B5 chain with H22V, D24H, L25Q, L47R, Y48N, L49K, F50W
Take B8: the equilibrium dissociation constant (Kd) in experiment [9] was found to be 7300 nM.
